Legend:
[1] = target: C-DDD1-Fab-hMN-14 (human); assay: SE-HPLC of the mixture with hMN14-Fab-DDD1; h679-Fab-AD2 reduced with TCEP
[2] = target: C-DDD1-Fab-hMN-14 (human); assay: SE-HPLC of the mixture with hMN14-Fab-DDD1; h679-Fab-AD2 not reduced
[3] = target: fusion protein containing the A3B3 domain of CEA (UniProt P06731); assay: competitive ELISA against HRP-conjugated hMN-14 IgG on the A3B3 fusion protein
CEA = CEA (UniProt P06731); assay: SE-HPLC of 125I-TF2 mixed with a 20-fold molar excess of CEA
[4] = target: recombinant human RIIα (human) (UniProt P13861); assay: equilibrium SE-HPLC
Sequence of UniProt P13861 (P13861 whole entry): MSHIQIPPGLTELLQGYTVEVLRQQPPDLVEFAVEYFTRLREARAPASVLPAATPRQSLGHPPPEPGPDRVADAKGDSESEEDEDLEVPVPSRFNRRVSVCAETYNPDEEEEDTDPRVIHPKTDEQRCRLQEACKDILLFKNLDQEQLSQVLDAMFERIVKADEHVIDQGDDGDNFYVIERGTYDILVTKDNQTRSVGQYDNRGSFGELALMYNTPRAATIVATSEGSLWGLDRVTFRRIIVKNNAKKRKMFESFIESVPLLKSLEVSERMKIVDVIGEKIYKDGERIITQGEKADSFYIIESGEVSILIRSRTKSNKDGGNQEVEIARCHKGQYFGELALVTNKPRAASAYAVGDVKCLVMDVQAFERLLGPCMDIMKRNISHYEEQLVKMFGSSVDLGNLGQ

[5] = target: N-DDD1-Fab-hMN-14 (human); assay: equilibrium SE-HPLC
[6] = target: C-DDD1-Fab-hMN-14 (human); assay: equilibrium SE-HPLC

## h679-Fab-AD2
[1]
  percent activity: 100%
[2]
  fraction reactive: 0.33

## TF2 (bispecific antibody)
[3]
  avidity, fold against TF1: 2 fold
CEA
  percent shifted to a high molecular weight species: 95%

## h679-Fab-AD1
[4]
  Kd: 30 nM
[5]
  Kd: 8 nM
[6]
  Kd: 15 nM

Reference: patent EP1959993B1
